Data published in PMC6707828 (Biochemistry, 2018).

What was measured:
SufS (alone) = SufS (alone) (Escherichia coli, UniProt P77444); settings: covalent (Schiff base with K226)
[1] = molecular target: SufS (second binding site) (Escherichia coli) (UniProt P77444); test: ITC; settings: cited from earlier work
[2] = molecular target: SufS (first binding site) (Escherichia coli) (UniProt P77444); test: ITC; settings: cited from earlier work
SEC = molecular target: the molecule itself; test: SEC

Cc1ncc(COP(=O)(O)O)c(C=O)c1O [PLP]
UV-Vis of PLP liberated from purified enzyme (SufS (alone)): UV-Vis spectroscopic analysis of PLP liberated from wild-type and the variant enzymes

SufE (from UniProt P76194)
Kd [1]: 300 µM | Kd [2]: 4 µM

B1: SufS E96A (enzyme, E. coli)
chain: MIFSVDKVRADFPVLSREVNGLPLAYLDSAASAQKPSQVIDAEAEFYRHGYAAVHRGIHTLSAQATEKMENVRKRASLFINARSAEELVFVRGTTAGINLVANSWGNSNVRAGDNIIISQMEHHANIVPWQMLCARVGAELRVIPLNPDGTLQLETLPTLFDEKTRLLAITHVSNVLGTENPLAEMITLAHQHGAKVLVDGAQAVMHHPVDVQALDCDFYVFSGHKLYGPTGIGILYVKEALLQEMPPWEGGGSMIATVSLSEGTTWTKAPWRFEAGTPNTGGIIGLGAALEYVSALGLNNIAEYEQNLMHYALSQLESVPDLTLYGPQNRLGVIAFNLGKHHAYDVGSFLDNYGIAVRTGHHCAMPLMAYYNVPAMCRASLAMYNTHEEVDRLVTGLQRIHRLLG
modifications: PLP cofactor (89-97% PLP incorporation)
stoichiometry N (SEC): 2

B2: SufS E250A (enzyme, E. coli)
chain: MIFSVDKVRADFPVLSREVNGLPLAYLDSAASAQKPSQVIDAEAEFYRHGYAAVHRGIHTLSAQATEKMENVRKRASLFINARSAEELVFVRGTTEGINLVANSWGNSNVRAGDNIIISQMEHHANIVPWQMLCARVGAELRVIPLNPDGTLQLETLPTLFDEKTRLLAITHVSNVLGTENPLAEMITLAHQHGAKVLVDGAQAVMHHPVDVQALDCDFYVFSGHKLYGPTGIGILYVKEALLQEMPPWAGGGSMIATVSLSEGTTWTKAPWRFEAGTPNTGGIIGLGAALEYVSALGLNNIAEYEQNLMHYALSQLESVPDLTLYGPQNRLGVIAFNLGKHHAYDVGSFLDNYGIAVRTGHHCAMPLMAYYNVPAMCRASLAMYNTHEEVDRLVTGLQRIHRLLG
modifications: PLP cofactor (89-97% PLP incorporation)
stoichiometry N (SEC): 2
